The values below come from patent publication US12410262B2, “Peptide conjugates of cytotoxins as therapeutics” (Cybrexa 2, Inc., priority 2019, dated 2025).

Data set [1] is described as follows: Glutathione cleavage study. It is filed as in vitro ADME. The note with it: Tris buffer with 10 mM glutathione, Glutathione Challenge (10 mM), 100 μM conjugate, Tris pH 7.5, 37° C. The procedure:
A 20 mM stock of conjugate was prepared in 100% DMSO. The stocks were subsequently diluted in 100 mM Tris, pH 7.5, to yield an intermediate dilution of 500 μM followed by an additional dilution of 1:5 in 100 mM Tris, pH 7.5 to give a final concentration of 100 μM of conjugate. 100 mM glutathione was prepared immediately prior to use in H2O and diluted 1:10 in challenge samples for a final glutathione challenge concentration of 10 mM. Samples were mixed by inversion and incubated at 37° C. for up to 24 hrs. […]
Samples were thawed and extracted as follows: 8 μL of 25% phosphoric acid followed by 117 μL of 100% acetonitrile/0.1% TFA were added to each sample, mixed and centrifuged at 13000×G for 10 minutes. The supernatant was pipetted into 0.2 mL HPLC vials and placed on a Perkin Elmer Flexar HPLC autosampler. The following table summarizes HPLC conditions:
Data was analyzed by calculating the percentage reduction of compound (area of retention time peak of […] conjugate/area of retention time peak of conjugate at time 0)×100.

Another data set is described as follows: Plasma stability studies. The settings on record: rat plasma, 100 μM conjugate, 37° C. It is filed as in vitro ADME. The protocol: A 20 mM stock of conjugate was prepared in 100% DMSO. The stocks were subsequently diluted in 100 mM Tris, pH 7.5 to yield an intermediate dilution of 500 μM and then diluted 1:5 directly into rat plasma to yield a final concentration of 100 μM of conjugate. Samples were mixed by inversion and incubated at 37° C. for up to 24 h. 50 μL samples were aliquoted into siliconized microfuge tubes at time 0, 4, and 24 h and immediately frozen at −80° C.
Samples were thawed and extracted as follows: 8 μL of 25% phosphoric acid followed by 117 μL of 100% Acetonitrile/0.1% TFA was added to each sample, mixed and centrifuged at 13000×G for 10 minutes. The supernatant was pipetted into 0.2 mL HPLC vials and placed on a Perkin Elmer Flexar HPLC autosampler. The following table summarizes HPLC conditions:
Data was analyzed by calculating the percentage reduction of compound (area of retention time peak of incubated conjugate/area of retention time peak of conjugate at time 0)×100.

In the next data set the test system is HCT116. In words: cells. It is filed as cell-based, human. The note with it: 96 h. The procedure: Cells were plated in 96 well black walled-clear bottom plates (Griener), DLD-1 WT cells at 2500 cells per well, FaDu, and HeLa cells at 5000 cells per well, and HCT116 at 3000 cells per well, in growth media containing 10% FBS. Cells were allowed to adhere at room temperature for 60 minutes before returning to a 37 C, 5% CO2 incubator. After 24 hours, media was removed and replaced with fresh growth media containing various drug concentrations. Each drug concentration was added in triplicate. Non-drug treated controls contained growth media only. Cells were returned to the incubator. Ninety-six hours after addition of drug, cells were fixed with 4% paraformaldehyde for 20 minutes and stained with Hoechst at 1 ug/mL. The plates were imaged on a Cytation 5 auto imager (BioTek) and cells were counted using CellProfiler (http://cellprofiler.org). The percent cell growth delay was calculated and data plotted using GraphPad Prism

On to `CC[C@@]1(O)C(=O)OCc2c1cc1n(c2=O)Cc2c-1nc1cc(F)c(C)c3c1c2[C@@H](NC(=O)O[C@H]1COC[C@@H]1SSC[C@H](NC(=O)[C@H](Cc1c[nH]c2ccccc12)NC(=O)[C@H](CC(C)C)NC(=O)[C@H](CC(C)C)NC(=O)[C@H](CC(=O)O)NC(=O)[C@H](CC(C)C)NC(=O)[C@H](CC(C)C)NC(=O)[C@H](CC(C)C)NC(=O)[C@@H](NC(=O)[C@H](CC(=O)O)NC(=O)[C@@H](NC(=O)[C@@H]1CCCN1C(=O)[C@H](Cc1ccccc1)NC(=O)[C@H](CC(C)C)NC(=O)[C@H](CC(C)C)NC(=O)[C@H](CC(=O)O)NC(=O)[C@H](CC(C)C)NC(=O)[C@H](Cc1ccc(O)cc1)NC(=O)[C@H](C)NC(=O)[C@H](CCCNC(=N)N)NC(=O)[C@H](Cc1c[nH]c2ccccc12)NC(=O)[C@@H]1CCCN1C(=O)[C@H](CC(N)=O)NC(=O)[C@H](CCC(N)=O)NC(=O)[C@H](CC(=O)O)NC(=O)[C@H](CC(=O)O)NC(=O)[C@H](C)N)[C@@H](C)O)[C@@H](C)O)C(=O)NCC(=O)O)CC3` [Compound 17], for which, in data set [1], the fraction remaining at 4 h, 100 µM came out at 3.4% and the amount remaining at 24 h, 100 µM came to 1.7%. In “Plasma stability studies”, the share remaining at 4 h, 100 µM stood at 107% and the share remaining at 24 h, 100 µM stood at 105%. Besides, in the data set on HCT116, half-maximal inhibition (IC50) was put at 0.7 nM.

On to `CC[C@@]1(O)C(=O)OCc2c1cc1n(c2=O)Cc2c-1nc1cc(F)c(C)c3c1c2[C@@H](NC(=O)O[C@H]1Cc2ccccc2C[C@@H]1SSC[C@H](NC(=O)[C@H](Cc1c[nH]c2ccccc12)NC(=O)[C@H](CC(C)C)NC(=O)[C@H](CC(C)C)NC(=O)[C@H](CC(=O)O)NC(=O)[C@H](CC(C)C)NC(=O)[C@H](CC(C)C)NC(=O)[C@H](CC(C)C)NC(=O)[C@@H](NC(=O)[C@H](CC(=O)O)NC(=O)[C@@H](NC(=O)[C@@H]1CCCN1C(=O)[C@H](Cc1ccccc1)NC(=O)[C@H](CC(C)C)NC(=O)[C@H](CC(C)C)NC(=O)[C@H](CC(=O)O)NC(=O)[C@H](CC(C)C)NC(=O)[C@H](Cc1ccc(O)cc1)NC(=O)[C@H](C)NC(=O)[C@H](CCCNC(=N)N)NC(=O)[C@H](Cc1c[nH]c2ccccc12)NC(=O)[C@@H]1CCCN1C(=O)[C@H](CC(N)=O)NC(=O)[C@H](CCC(N)=O)NC(=O)[C@H](CC(=O)O)NC(=O)[C@H](CC(=O)O)NC(=O)[C@H](C)N)[C@@H](C)O)[C@@H](C)O)C(=O)NCC(=O)O)CC3` [Compound 18], for which, in data set [1], the amount remaining at 4 h, 100 µM is 60.1% and the share remaining at 24 h, 100 µM is 13%. For the same compound, in “Plasma stability studies”, the fraction remaining at 4 h, 100 µM came to 104% and the fraction remaining at 24 h, 100 µM came to 93%. Besides, in the data set on HCT116, half-maximal inhibition (IC50) required 2.9 nM.

In the case of `CC[C@@]1(O)C(=O)OCc2c1cc1n(c2=O)Cc2c-1nc1cc(F)c(C)c3c1c2[C@@H](NC(=O)O[C@@H]1COCC[C@H]1SSC[C@H](NC(=O)[C@H](Cc1c[nH]c2ccccc12)NC(=O)[C@H](CC(C)C)NC(=O)[C@H](CC(C)C)NC(=O)[C@H](CC(=O)O)NC(=O)[C@H](CC(C)C)NC(=O)[C@H](CC(C)C)NC(=O)[C@H](CC(C)C)NC(=O)[C@@H](NC(=O)[C@H](CC(=O)O)NC(=O)[C@@H](NC(=O)[C@@H]1CCCN1C(=O)[C@H](Cc1ccccc1)NC(=O)[C@H](CC(C)C)NC(=O)[C@H](CC(C)C)NC(=O)[C@H](CC(=O)O)NC(=O)[C@H](CC(C)C)NC(=O)[C@H](Cc1ccc(O)cc1)NC(=O)[C@H](C)NC(=O)[C@H](CCCNC(=N)N)NC(=O)[C@H](Cc1c[nH]c2ccccc12)NC(=O)[C@@H]1CCCN1C(=O)[C@H](CC(N)=O)NC(=O)[C@H](CCC(N)=O)NC(=O)[C@H](CC(=O)O)NC(=O)[C@H](CC(=O)O)NC(=O)[C@H](C)N)[C@@H](C)O)[C@@H](C)O)C(=O)NCC(=O)O)CC3` [Compound 20], the fraction remaining at 4 h, 100 µM amounted to 5.2% in data set [1] and 98.7% in the data set “Plasma stability studies”. For the same compound, the fraction remaining at 24 h, 100 µM is 8% in data set [1] and 95.8% in the data set “Plasma stability studies”. Also, the midpoint of inhibition with HCT116, the IC50, lay at 7.9 nM.

For `CC[C@@]1(O)C(=O)OCc2c1cc1n(c2=O)Cc2c-1nc1cc(F)c(C)c3c1c2[C@@H](NC(=O)O[C@H]1COCC[C@@H]1SSC[C@H](NC(=O)[C@H](Cc1c[nH]c2ccccc12)NC(=O)[C@H](CC(C)C)NC(=O)[C@H](CC(C)C)NC(=O)[C@H](CC(=O)O)NC(=O)[C@H](CC(C)C)NC(=O)[C@H](CC(C)C)NC(=O)[C@H](CC(C)C)NC(=O)[C@@H](NC(=O)[C@H](CC(=O)O)NC(=O)[C@@H](NC(=O)[C@@H]1CCCN1C(=O)[C@H](Cc1ccccc1)NC(=O)[C@H](CC(C)C)NC(=O)[C@H](CC(C)C)NC(=O)[C@H](CC(=O)O)NC(=O)[C@H](CC(C)C)NC(=O)[C@H](Cc1ccc(O)cc1)NC(=O)[C@H](C)NC(=O)[C@H](CCCNC(=N)N)NC(=O)[C@H](Cc1c[nH]c2ccccc12)NC(=O)[C@@H]1CCCN1C(=O)[C@H](CC(N)=O)NC(=O)[C@H](CCC(N)=O)NC(=O)[C@H](CC(=O)O)NC(=O)[C@H](CC(=O)O)NC(=O)[C@H](C)N)[C@@H](C)O)[C@@H](C)O)C(=O)NCC(=O)O)CC3` [Compound 21], in data set [1], the amount remaining at 4 h, 100 µM is 9.5% and the fraction remaining at 24 h, 100 µM stood at 12.6%. Besides, in the data set “Plasma stability studies”, the fraction remaining at 4 h, 100 µM was 101% and the amount remaining at 24 h, 100 µM amounted to 98.2%. Also, half-maximal inhibition with HCT116 (IC50) required 3.1 nM.

On to `CC[C@@]1(O)C(=O)OCc2c1cc1n(c2=O)Cc2c-1nc1cc(F)c(C)c3c1c2[C@@H](NC(=O)O[C@@H]1CCCCC[C@H]1SSC[C@H](NC(=O)[C@H](Cc1c[nH]c2ccccc12)NC(=O)[C@H](CC(C)C)NC(=O)[C@H](CC(C)C)NC(=O)[C@H](CC(=O)O)NC(=O)[C@H](CC(C)C)NC(=O)[C@H](CC(C)C)NC(=O)[C@H](CC(C)C)NC(=O)[C@@H](NC(=O)[C@H](CC(=O)O)NC(=O)[C@@H](NC(=O)[C@@H]1CCCN1C(=O)[C@H](Cc1ccccc1)NC(=O)[C@H](CC(C)C)NC(=O)[C@H](CC(C)C)NC(=O)[C@H](CC(=O)O)NC(=O)[C@H](CC(C)C)NC(=O)[C@H](Cc1ccc(O)cc1)NC(=O)[C@H](C)NC(=O)[C@H](CCCNC(=N)N)NC(=O)[C@H](Cc1c[nH]c2ccccc12)NC(=O)[C@@H]1CCCN1C(=O)[C@H](CC(N)=O)NC(=O)[C@H](CCC(N)=O)NC(=O)[C@H](CC(=O)O)NC(=O)[C@H](CC(=O)O)NC(=O)[C@H](C)N)[C@@H](C)O)[C@@H](C)O)C(=O)NCC(=O)O)CC3` [Compound 22], for which the values for the fraction remaining at 4 h, 100 µM (in data set [1]; in the data set “Plasma stability studies”) were 65.8% and 106%, respectively. In addition, the amount remaining at 24 h, 100 µM in data set [1] was found to be 12.3%; in the data set “Plasma stability studies”, 105%. In the data set with HCT116, the IC50 (usually the concentration at which inhibition is half-maximal) came out at 5.9 nM.

On to `CC[C@@]1(O)C(=O)OCc2c1cc1n(c2=O)Cc2c-1nc1cc(F)c(C)c3c1c2[C@@H](NC(=O)O[C@H]1CCCCC[C@@H]1SSC[C@H](NC(=O)[C@H](Cc1c[nH]c2ccccc12)NC(=O)[C@H](CC(C)C)NC(=O)[C@H](CC(C)C)NC(=O)[C@H](CC(=O)O)NC(=O)[C@H](CC(C)C)NC(=O)[C@H](CC(C)C)NC(=O)[C@H](CC(C)C)NC(=O)[C@@H](NC(=O)[C@H](CC(=O)O)NC(=O)[C@@H](NC(=O)[C@@H]1CCCN1C(=O)[C@H](Cc1ccccc1)NC(=O)[C@H](CC(C)C)NC(=O)[C@H](CC(C)C)NC(=O)[C@H](CC(=O)O)NC(=O)[C@H](CC(C)C)NC(=O)[C@H](Cc1ccc(O)cc1)NC(=O)[C@H](C)NC(=O)[C@H](CCCNC(=N)N)NC(=O)[C@H](Cc1c[nH]c2ccccc12)NC(=O)[C@@H]1CCCN1C(=O)[C@H](CC(N)=O)NC(=O)[C@H](CCC(N)=O)NC(=O)[C@H](CC(=O)O)NC(=O)[C@H](CC(=O)O)NC(=O)[C@H](C)N)[C@@H](C)O)[C@@H](C)O)C(=O)NCC(=O)O)CC3` [Compound 23], for which, in data set [1], the share remaining at 4 h, 100 µM was determined as 61.4% and the fraction remaining at 24 h, 100 µM is 13.2%. Also, in “Plasma stability studies”, the amount remaining at 4 h, 100 µM came to 92% and the fraction remaining at 24 h, 100 µM is 92%. Further, the IC50 in the data set on HCT116 was determined as 11.9 nM.
